# Laboratory results taken from paper PMC6341664, “Role of the highly conserved G68 residue in the yeast phosphorelay protein Ypd1: implications for interactions between histidine phosphotransfer (HPt) and response regulator proteins” (BMC Biochemistry, 2019).
# T1: Ypd1-T12C-G68V, fluorescein-labelled (S. cerevisiae, UniProt Q07688 3-167, T12C | G68V, 5-iodoacetamidofluorescein (5-IAF) on the cysteine introduced at position 12)
# T1 construct: Ypd1, HPt protein of Saccharomyces cerevisiae; double mutant made on pET-Ypd1-T12C; also called Ypd1-G68V
# T1 sequence: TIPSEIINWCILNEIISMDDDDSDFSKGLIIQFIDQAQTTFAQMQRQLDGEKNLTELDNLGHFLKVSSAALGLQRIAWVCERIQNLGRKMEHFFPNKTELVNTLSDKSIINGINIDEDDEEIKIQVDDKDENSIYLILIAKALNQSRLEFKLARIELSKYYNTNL
# T2: Ypd1-T12C-G68L, fluorescein-labelled (S. cerevisiae, UniProt Q07688 3-167, T12C | G68L, 5-iodoacetamidofluorescein (5-IAF) on the cysteine introduced at position 12)
# T2 construct: Ypd1, HPt protein of Saccharomyces cerevisiae; double mutant made on pET-Ypd1-T12C; also called Ypd1-G68L
# T2 sequence: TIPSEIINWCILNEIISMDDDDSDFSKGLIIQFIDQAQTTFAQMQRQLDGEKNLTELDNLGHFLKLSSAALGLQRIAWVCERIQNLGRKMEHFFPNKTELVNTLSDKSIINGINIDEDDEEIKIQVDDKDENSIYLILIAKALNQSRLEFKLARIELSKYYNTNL
# T3: Ypd1-T12C-G68Q, fluorescein-labelled (S. cerevisiae, UniProt Q07688 1-167, T12C | G68Q, 5-iodoacetamidofluorescein (5-IAF) on the cysteine introduced at position 12)
# T3 construct: Ypd1, HPt protein of Saccharomyces cerevisiae; double mutant made on pET-Ypd1-T12C; PDB 6M7W is the single mutant Ypd1-G68Q (from pUC-Ypd1, without T12C); also called Ypd1-G68Q
# T3 sequence: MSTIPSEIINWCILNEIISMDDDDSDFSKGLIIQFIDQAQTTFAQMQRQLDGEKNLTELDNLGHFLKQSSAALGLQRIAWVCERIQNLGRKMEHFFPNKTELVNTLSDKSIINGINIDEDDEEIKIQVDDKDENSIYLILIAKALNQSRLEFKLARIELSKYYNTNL
# T4: Ypd1-T12C-G68E, fluorescein-labelled (S. cerevisiae, UniProt Q07688 3-167, T12C | G68E, 5-iodoacetamidofluorescein (5-IAF) on the cysteine introduced at position 12)
# T4 construct: Ypd1, HPt protein of Saccharomyces cerevisiae; double mutant made on pET-Ypd1-T12C; also called Ypd1-G68E
# T4 sequence: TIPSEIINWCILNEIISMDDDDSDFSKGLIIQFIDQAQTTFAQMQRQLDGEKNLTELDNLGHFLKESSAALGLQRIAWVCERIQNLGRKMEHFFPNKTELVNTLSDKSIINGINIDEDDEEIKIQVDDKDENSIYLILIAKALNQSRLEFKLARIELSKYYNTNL
# T5: Ypd1-T12C~F (fluorescein-labelled Ypd1-T12C) (S. cerevisiae, UniProt Q07688 3-167, T12C, 5-iodoacetamidofluorescein (5-IAF) on the cysteine introduced at position 12 (70-90% of the molecules labelled))
# T5 construct: Ypd1, histidine phosphotransfer (HPt) protein of Saccharomyces cerevisiae; YPD1 gene in pET21a(+), T12C; also called WT; 5-IAF labelled Ypd1
# T5 sequence: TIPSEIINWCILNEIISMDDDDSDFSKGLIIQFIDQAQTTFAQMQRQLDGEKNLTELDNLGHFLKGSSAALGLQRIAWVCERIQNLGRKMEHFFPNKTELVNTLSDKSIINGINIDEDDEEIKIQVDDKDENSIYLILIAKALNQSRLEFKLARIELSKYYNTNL
# Experiments:
# Assay in all cases: other fluorescence titration; 5-IAF-labelled Ypd1-T12C (30 pmol in 1.9 mL) titrated with Sln1-R1, 10 nM to 6 uM; 23.0 °C; 20 mM Tris pH 8.0, 50 mM NaCl, 10 mM MgCl2; excitation 492 nm, emission 515 nm; quadratic fit; 'observed' Kd, three replicate titrations
# Settings in all cases: both partners purified
# [1] = target: T1, Ypd1-T12C-G68V, fluorescein-labelled
# [2] = target: T2, Ypd1-T12C-G68L, fluorescein-labelled
# [3] = target: T3, Ypd1-T12C-G68Q, fluorescein-labelled
# [4] = target: T4, Ypd1-T12C-G68E, fluorescein-labelled
# [5] = target: T5, Ypd1-T12C~F (fluorescein-labelled …)
binder,measurement,setting,value
"Sln1-R1 (receiver domain of Sln1) (domain or fragment, S. cerevisiae, Receiver domain (R1) of the hybrid sensor histidine kinase Sln1 of Saccharomyces cerevisiae, in the vector pFJS16; neither is said here; also called receiver domain from Sln1) TSVKILVVEDNHVNQEVIKRMLNLEGIENIELACDGQEAFDKVKELTSKGENYNMIFMDVQMPKVDGLLSTKMIRRDLGYTSPIVALTAFADDSNIKECLESGMNGFLSKPIKRPKLKTILTEFCAAYQGKKNNK",Kd,[1],2900 nM
same,Kd,[2],1300 nM
same,Kd,[3],600 nM
same,Kd,[4],500 nM
same,Kd,[5],940 nM
